Source: PMC9158661

Target: extracellular Cu/Zn superoxide dismutase from Onchocerca volvulus (OvEC-SOD) (Onchocerca volvulus)
Assay: SAXS; monodisperse solutions after affinity-tag cleavage, four concentrations 0.5-7.5 mg/ml; molecular mass from forward scattering with bovine serum albumin as reference; compared with the crystallographic dimer (CRYSOL, SREFLEX, GASBOR)

## extracellular Cu/Zn superoxide dismutase from Onchocerca volvulus (OvEC-SOD) (enzyme)
  stoichiometry N: 2
